Measurements from the nanobody polyreactivity screen of Harvey et al. (2022).

Assay: yeast display, Sf9 membrane polyspecificity reagent, FACS + sequencing; frameworks hold sequencing errors
In short: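 Polyreactivity labels are assigned by the sorting gate from which each nanobody was recovered. The gates were low and high (top ~1%), set on anti-HA fluorescence for expression and streptavidin fluorescence for reagent binding. Before sorting, galactose-induced (36–48 hours) yeast display cells were stained for 1 hour at 4 °C with 10% biotinylated, detergent-solubilized Sf9 membrane reagent.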

Sequence | polyreactivity (PSR sort gate)
QVQLVESGGGLVQAGGRLLLICAASGRIFIANAMGWYSKAPGKERELVATISRSGVSTNYADSVKVRFTISRDNAKNSVYLQMNSLKPEDTAVYYCADIRSGGQGQGYGYWGQVTQVTVSS | high polyreactivity
QVQLVESGGGLVQAGGRLPLSCAASGSTYSVNAMGWYRQAPGKERELVAAITRSGGSTYYADSVKGRFTISRDNAKNTVYLQMNSLNPEDTAVYYCAAEIYPLGEYWGQGTQVTVSS | low polyreactivity
QVQLVESGGGLVQAGGRLRFSCAASGSTIRRKAMGWSRQAPGKERELVARISYRGGSTYYADSVKGRFTSSRDNAKNTVYLQMNSLKPEATAVYYCAAPVYGVPEYDYWGQGPQVTVSS | low polyreactivity
QVQLVESGGGLVQAGGRLRISCAASGSIFEINAMGWYRQAPGKERELVAAITGSGGSTHYADSVKGRFPISRDNAKNTVYLQMNCLKPEDTAVYYCAAVPRYQYGYLGQGTQVTVSS | low polyreactivity
QVQLVESGGGLVQAGGRLRISSAASGRIFAYYAMGWYRQAPGKERELVAANTTNGGGTYYADSVKGRFTISRDNAKNTVSLQMNSLNPEDPAFYYCATQFEGPAGFNNWGQGTQVTVSS | low polyreactivity
QVQLVESGGGLVQAGGRLRLRCAASGFIFSIYTMGWYRQAPGKERELVAAISWSGGSKYYADSVKGRFTISRDNAKNTVYLQMNSLKPEDTAVYYCNRVQFSPVYRFREYDYWGQGTQVTVSS | high polyreactivity
QVQLVESGGGLVQAGGRLRLSCAASGFIFKYNAMGWSRQAPGKERELVAAISRGGRTYYADSVKGRFTISRDNAKNTVYLQMNSLKPEDTAVYYCAAVSHYPAGYDYWGQGTQVTVSS | high polyreactivity
QVQLVESGGGLVQAGGRLRLSCAASGFIVDDNTIGWYRQAPGKEREVFAAISYSAGSTYYADSVKGRFTISRDNAKNTVYFQLNSLKPEDTAVYYCAAQHYWVTCYLSSYDYWGQGTQVSVSS | low polyreactivity
QVQLVESGGGLVQAGGRLRLSCAASGFTFPWYTMGWYRQAPGKERELVAAISRSGGSTYYADSVKGRFTISRDNAKNTVYLQLNSLKPEDTAVYYCAAEQTRWPDITRYDYWGQGTQVTVSS | high polyreactivity
QVQLVESGGGLVQAGGRLRLSCAASGFTFSRNAMGWYRQAPGKERELVAAITASTSRTYYADSVKGRFTISRDNAKNTVYLQMTSLKQEDSAVYYCNAGRPGRGPYGYWGQGTQVTVSS | high polyreactivity
QVQLVESGGGLVQAGGRLRLSCAASGFTFSYNTMGWYRQEPGKERELVAAITGDVSTNYADSVKGRFTISRDNAKNTVYLQMNSVKPEDTAVYYCAARPNFPGYEDLSVDYDYWGQGTQVTVSS | low polyreactivity
QVQLVESGGGLVQAGGRLRLSCAASGFTFWRNAMGWYRQAPGKERELVAAISRRGGNTYYADSVKGRFTISRDNAKNCVYLQMNSLKPEDTAVYYCAADYSYYYGYDYWGQGTQVTVSS | high polyreactivity
QVQLVESGGGLVQAGGRLRLSCAASGFTVSYYGMGWSRQAPGKERELVATISSSGSTNYADSVKGRFTISRDNAKNSVYLQMNSLKPEDTAVYYCATDYADAGYYTTFDYWGQGTQVTVSS | high polyreactivity
QVQLVESGGGLVQAGGRLRLSCAASGFTYPEYAMGWYRQAPGKEMELVAAIDSGDGSTYYADSVKGRFTISRDNAKNTVYLQMISLKPEDTAVYYCATDRYPHSATPGDYWGQGTQVTVSS | low polyreactivity
QVQLVESGGGLVQAGGRLRLSCAASGFYLNAMGWYRQAPGKDRELVATITSSATNTYYADSVKGRFTISRDNAKNTVYLQMNSLKPEDTAVYYCNARYTSHTLADGVYLYDYWGQGTQVTVSS | low polyreactivity
QVQLVESGGGLVQAGGRLRLSCAASGGIFESYAMGWYRQAPGKERELVATITGSGGNTYYADSVKGRFTISRDNAKNTVYLQMNSLKPEDTAVYYCAADTYITPHYLPLLYFLMEYWGQGTQVTVSS | low polyreactivity

Sequence | polyreactivity (PSR sort gate)
QVQLVESGGGLVQAGGRLRLSCAASGGTFYLNAMGWYRQAPGKERELVAAISGSGTSTYYADSVKGRFTISRDNAKNTVYLQMNSLKPEDTAVYYCAADGTYFYIYLGDRFDYWGQGTQVTVSS | low polyreactivity
QVQLVESGGGLVQAGGRLRLSCAASGIFGYNALGWYRQAPGKERELVAAITSSGTSTYYADSVKGRFTISRDNAKNTVYLQMNSLKPEDTAVYYCAALHSGTWTGYGYWGQGTQVTVSS | low polyreactivity
QVQLVESGGGLVQAGGRLRLSCAASGIIFFWYVRGWYRQAPGKERELVAAINRGGITNYADSVKGRFTISRDNAKNTVYLQMNSLKTEDTAVYYCNKDWKTESWFNRYGGYGIEDDYWGQGTQVTVSS | high polyreactivity
QVQLVESGGGLVQAGGRLRLSCAASGIIFGTYAMGWYRPAPGQERELVAAINTGGTTYYADSVKGRFTISRDNAKNTVYLQMNSLKPEDTAVYYCAAEFTRYRYYYHKRPMDYWGQGTQVTVSS | low polyreactivity
QVQLVESGGGLVQAGGRLRLSCAASGIIFPRYMGWYRQAPGKERELVAAIRWSSDDTNYADSVKGRFTISRDNAKNTVYLQMNSLKPEDTAVYYCAAHSYYDRTIQFEFSARTYDYWGQGTQVTVSS | low polyreactivity
QVQLVESGGGLVQAGGRLRLSCAASGIIFQYNAMGWYRQAPGKEREFVAAISYGGTSTYYADSVKGRFTISRDNAKNTVYLQMNSLKPEDTAVYYCAADYQGYTPSDGRYYWGQGTQVTVSS | low polyreactivity
QVQLVESGGGLVQAGGRLRLSCAASGIIVGLYTMGWYRQARGKERELVAAISDSGGRTYYADSVKGRFTISRDNVKNTVYLQMNSLKPEDTAVYYCATRWPHYGGYYYWGQGTQVTVSS | high polyreactivity
QVQLVESGGGLVQAGGRLRLSCAASGINLGRYAMGWYRQAPGKERELVASISWSGGSTYYADSVKGRFTISRDNAKNTVYLQMNSLIPEDPAVYYCAATYWKSRYGVRGYPFGYWGQGTQVTVSS | high polyreactivity
QVQLVESGGGLVQAGGRLRLSCAASGITFQPNAMGWYRQAPGKERELVARITRGGGRTYYADSVKGRFTISRDNAKNTVYLLMHSLKPEDTAVYYCAADYSYIYGFDYWGQGTQVTVSS | low polyreactivity
QVQLVESGGGLVQAGGRLRLSCAASGITFRWYAMGWYRQAPGKERELVAAITTSGDSTYYADSVKGRFTISRDNAKNTVYLQMNSLKPEDTAVNYCAAKYQSLRTYGYGFDYWGQGTQVTVSS | high polyreactivity
QVQLVESGGGLVQAGGRLRLSCAASGITFSYYAMGRYRQAPGKERELVAAISSGGRTYYADSVKGRFTISRDNAKNTVYLQMNSLKQEDTAVYYCAASFLVTSREYDYWGQGTQVTVSS | high polyreactivity
QVQLVESGGGLVQAGGRLRLSCAASGITFWSNALGWYRQAPGKERELVAAMTSGGNTNYADSVKGRFTISRDNAKNTVYLQMNSLKPEDTAVYYCATKQLLRRRQGYYWVGSKHDYWGQGTQVTVSS | high polyreactivity
QVQLVESGGGLVQAGGRLRLSCAASGLIFTWNAMGWYRQAPGKERELVAAISTGGSTSYADSVKGRFTISRDNAMNTVYLQMNSMKPEDTAVYYCARDSSIWSHGSWYDYWGQGTQVTVSS | low polyreactivity
QVQLVESGGGLVQAGGRLRLSCAASGNTLRGYAMGWYRPAPGKERELVSAISYSSVNTYYADSVKGRFTISRDNAKNTVYLQMNSLKPEDTAVYYCAADYYYYRRTQYDLRGYPYYYWGQGTQVTVSS | low polyreactivity
QVQLVESGGGLVQAGGRLRLSCAASGRIFAKNAMGWYRQAPGKERELVAAISGSGGSTYYADSVKGRFTISRDNAKNTVYLQMNSMKPDDTAVYYCAATRGPNYRNGYWGQGTQVTVSS | high polyreactivity
